Values quoted from earlier work, collected in patent publication US20030175285A1, “Molecule of pharmaceutical interest comprising at its n-terminal a glutamic acid or a glutamine in the form of a physiologically acceptable strong acid” (priority 2000, published 2003).
Ends that are not written are not given here.

Experiments:
[1] = system: osteoblasts and chondrocytes; conditions: trifluoroacetate form
melanoma = conditions: acetate form, patients suffering from a melanoma
[2] = acetate form

**Q.** With “Amylin: synthetic peptide in trifluoroacetate form (KCNTATCATQRLANFLVHSSNNFGAILSSTNVGSNTY; cysteine pairing not given here; also: trifluoroacetate salt; UniProt P10997 34-70, looked up)” as the substance, how does the “toxicity for cells in culture” value [1] read?
**A.** Its value is “toxic”.

**Q.** With EVDPIGHLY [MAGE-3] as the substance, how does the clinical antitumor effect (melanoma) read?
**A.** Its clinical antitumor effect is “tumor regression”.

**Q.** And the required storage temperature [2]?
**A.** Its required storage temperature is −80 °C.

**Q.** For Calcitonin, which “toxicity for cells in culture” value [1] is on record?
**A.** The value was “toxic”.
